Assay results as given in the supplement of paper PMC12042874.
± gives the uncertainty stated by the source.

experiment: amyloid nucleation score (Sup35N fusion, yeast selection) (log enrichment); library NNK3; higher = more nucleation; inactive = no reads after selection
How it was run: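 Psi-negative yeast expressed Sup35N fused to peptides of 20 random codons. They were induced 24 hours with 100 μM copper sulfate, grown 7 days at 30°C without adenine and uracil, and their plasmid inserts from input and output were Illumina-sequenced. The nucleation score is the DiMSum log enrichment of output over input reads, centred on the mode score of non-aggregating sequences. Sequences with under 100 input reads were excluded.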

| Substance | amyloid nucleation score |
| --- | --- |
| SLFLLFLWYGINDTYLVYFV | inactive |
| FMEHLLYE | inactive |
| GIRVF | inactive |
| VPIRECTMLSSMSWTGEPSY | inactive |
| YTYQTLLADLNKGFMYSRRW | inactive |
| CFAYG | -0.533 ± 0.4 |
| DLSIRKFHGGSMDSLNMEYM | inactive |
| YMSFFIFIPIFLCVNLDRVC | 2.38 ± 0.061 |
| EWPVNTNVYFCFMYTANFNT | 2.63 ± 0.055 |
| LHRLRKWRRLY | inactive |
| SVVLRYVLRYNRSACESRRR | 0.441 ± 0.21 |
| AYAIGHEDCEVYQLLVKLLG | inactive |
| TVLVTMFKIEEQLTF | inactive |
| CLFSHYLV | inactive |
| YKCHMSVYRGFINCNVVLMR | inactive |
| LMKFFINVKVSGGVTCVRIN | inactive |
| GNALSAFPVGSFRKVVRCHG | inactive |
| LDLSLMHGMFTYFGVHMMMP | inactive |
| NYFQFCCGLETVNNYYRKCE | 1.76 ± 0.066 |
| EKGIGYKLCMGQYAGS | inactive |
| NLVRFLLKFMVKEYLRFTYI | inactive |
| ADNRHIFFIGFQRVLSFSWA | 1.25 ± 0.1 |
| YYCSDLSRSMDRSLRSTWPF | inactive |

| Substance | amyloid nucleation score |
| --- | --- |
| ASLISILLALDMSMGLSLEP | inactive |
| ERIVPA | inactive |
| LVPVLNGVLSKLRSFNFHSG | inactive |
| LDMSLACPRG | -0.051 ± 0.77 |
| YCYFFLGLCTYKSQYNGLRL | inactive |
| MWCMGNSVGSVWSRCTYMRY | inactive |
| RSYGR | inactive |
| FKAPWLSGP | inactive |
| TRNSYCTFRGGIIFCL | 1.25 ± 0.09 |
| SFGLWNLRTYTAVIASSWEL | inactive |
| VIPARADATGPKEHGWLQLQ | inactive |
| NQSGALVG | inactive |
| TNTFQSRNMFVNTALIYSP | inactive |
| SAGWMSTKVSVQLTNYPGLA | 1.33 ± 0.16 |
| WRFYGYI | inactive |
| DSSLYKDQYRVRSSGQFKRA | inactive |
| GYNCALWDVGCLHVFRPYAN | inactive |
| QIPSGVVCGMNGYCLGAVTR | inactive |
| CHHLRWDNCVRREELDFTCV | inactive |
| FNISIRVDIVISICNNVVFN | 0.596 ± 0.19 |
| FYSAISVAAYIEMTWESVDM | inactive |
| WPTFDCRRM | inactive |
| MTCSQSECARVIVSRCHVWP | inactive |

| Substance | amyloid nucleation score |
| --- | --- |
| LLFML | inactive |
| MMMQLNGVHMV | inactive |
| RGNDLIVCCGDRMCFCNALS | inactive |
| TRRGHHCQFLVSGSGIAL | inactive |
| MRTNTPIFLVLGKIS | inactive |
| GRVSYCITRME | inactive |
| MFLGNVMTILIEMGFQKALT | 0.93 ± 0.17 |
| SFNMDYHMWIEQGSRWVFTT | inactive |
| GSVRNSDKKWVPIVVYIPLQ | inactive |
| GDTVLVILSILSVGCC | 1.2 ± 0.15 |
| LAIVRRCWNLRYAGYEI | inactive |
| SVDVTFSVYHY | 0.702 ± 0.19 |
| DNICIYWALDGIYECSRHSR | inactive |
| DKFLFLCMG | inactive |
| PVEPI | inactive |
| QVNKFCYCMVDKLVVVH | 2.27 ± 0.074 |
| MLYFALNLC | inactive |
| MSSSSAFD | inactive |
| IIPVTSRDYSRKPYPTLERV | inactive |
| RNSVFLCKGIQVYLVLVIVV | inactive |
| YVNRYLLYFSFFTFANMCGS | 2.05 ± 0.055 |
| VSMRPMTSSRLKRFKYRYLY | inactive |
| NALILAT | inactive |

| Substance | amyloid nucleation score |
| --- | --- |
| FERDMVQ | inactive |
| RYDTNSRVRIIVSNF | inactive |
| LFNGSSFITCSRTLGVL | inactive |
| YNFWMRQVVMRVTVCGNDEA | inactive |
| SKIVNHFNDHYHFEITCQYQ | 2.88 ± 0.057 |
| PRDYMINNLLVFQSRG | inactive |
| GKLSNH | inactive |
| VCNMYFSFIRNLRGFNRNQC | 2.06 ± 0.062 |
| SSFYCRAFGDRNVWKWQWCL | inactive |
| RPRNLSLASYTDSVMRFGLS | inactive |
| SNFFRYIFYTRSQFSFQLIN | inactive |
| DIIVKQLPKRYGPTMSIRNM | -0.057 ± 0.58 |
| HMDSWSYWVIVV | inactive |
| ATAPYDTVCRLYCLSWPPRS | inactive |
| LRMWERMCAVSL | inactive |
| IANTHFIIM | 1.14 ± 0.13 |
| DAFRSSYWIICMTEAHLYKF | inactive |
| SCFGECCI | inactive |
| SEFCSNFNQFGC | inactive |
| GERTVLVKGLMRCIWVPVIW | inactive |
| QRYTFIIIGTGWTGYYRHTP | -0.156 ± 0.41 |
| CWFRLYQRNARVVDNFVNHG | inactive |
| MFRHVWVTNEVLSCGYIVTG | inactive |

| Substance | amyloid nucleation score |
| --- | --- |
| NSDFLSTVGYEGLLHTQGCA | inactive |
| HERILATGVFEMDLGMLVFR | inactive |
| CMFNGGDWNHNVRELGRQSS | inactive |
| KYVYFMSVFCEVCSRAHRVV | 1.24 ± 0.1 |
| TTQILAL | inactive |
| SYSLPMQKRCCIGIGEAGWN | -0.354 ± 0.82 |
| SSEKLMQGFKVRLVCHFLAR | inactive |
| GSYLDDRGSGASIATLLVVM | inactive |
| SLCNGCMIK | inactive |
| QSSKDTWRCASDKYERSGKR | inactive |
| MHLVYQDILSYIAWSRVPLR | inactive |
| WYMCLGSLMSIVF | inactive |
| YSFRVTYEGPHAN | 0.873 ± 0.14 |
| MGVICWYLRACNPQPGSNCK | inactive |
| FRWHLCRFCWKRIFASTMLA | inactive |
| YYYYDRCMRPVHSGKGVKLW | inactive |
| QGSLVKFS | inactive |
| VFTFAWMLNRVISNYHPTIP | inactive |
| VFCAGLFDTMCCSDGASVEV | 1.16 ± 0.095 |
| ICYTYNGPRSSVGVVLLGQ | inactive |
| IHLIVWGPSSTLVMVFMEVM | inactive |
| YGLVLGFRRTGYTCDDSLNW | inactive |
| SFRSPMDIVLLFVMCSVLAR | inactive |

| Substance | amyloid nucleation score |
| --- | --- |
| PFFRASRLWLSLVRMRTLSV | inactive |
| NVFFIRNNQTTGRLKFWCQV | 0.958 ± 0.12 |
| NICLKNSVS | inactive |
| SGRKR | inactive |
| STSFCSSLDLWSQEVIVASV | inactive |
| VFVPVYPEFFVRSG | inactive |
| VVRIDSSLGKFNFQSAKD | inactive |
| NECLVDTA | inactive |
| FLACSDVVYSDN | inactive |
| HVVVFDYLLSVLCIVDRVEG | inactive |
| VDMVGYRNLRCHSN | inactive |
| FLTLSSFHRPMVE | inactive |
| GDRRER | 0.811 ± 0.16 |
| NMVPNCDLLMKSRLKVSNSA | inactive |
| ASATAYSVNLRLKVTVNM | 1.71 ± 0.12 |
| ISHCMVLRNA | 2.49 ± 0.086 |
| TLLLL | inactive |
| IMYPIRSSGLEPLNMCGYQA | inactive |
| FLNLHTVCC | inactive |
| NIMVDHS | -0.476 ± 1.4 |
| HQGFE | inactive |
| EAVYLSLYKECLCLVRVS | inactive |
| YFGGRM | inactive |

| Substance | amyloid nucleation score |
| --- | --- |
| IFLKHIPRHSSSKTMTANCP | inactive |
| SWMSI | inactive |
| VAMRDERGLFNRLWLRVFV | inactive |
| YYCEFGLFELKQTYCRLFWG | inactive |
| VYLIKPMNDALSHHEPIKWD | inactive |
| NIISNDLSEASIYNGFVCNR | inactive |
| DFGFYWSSVGHAGLETKLYP | inactive |
| FHMFYRFSGDNGPKKFH | 0.607 ± 0.26 |
| KYCRRVYSSAETLYVLTHI | inactive |
| HCVMNNVAWVLRYTDRRDAL | 1.2 ± 0.091 |
| RCGKPVGRTYGLGISIEKAR | inactive |
| SSTPIFFLFFKSVQQVFNFP | 0.722 ± 0.18 |
| VSFSSCTWSMQEERMLVSWG | inactive |
| IQCIWDIVGDCWCNSSMGKE | inactive |
| PWCLNWVITDDCRFYCGLRV | inactive |
| TGCPWIRTVNPVVPWVCEHR | inactive |
| DLDCGTSDMLCCRLVCC | inactive |
| RLWWS | -0.186 ± 0.98 |
| SSAGVGVAKVGARHRLRRCW | inactive |
| IGLSAKIRFWVMWRMRHTR | inactive |
| WSTESWTYPGIRMCFWGGEG | -0.755 ± 1.4 |
| ATTNKLIYSHMVGKMLTSSF | inactive |
